Test results taken from US20200108125A1.

Target: TrkB (mouse) (UniProt P15209)
Experiment: cell-based or functional assay

Sequence of UniProt P15209 (P15209 32-821): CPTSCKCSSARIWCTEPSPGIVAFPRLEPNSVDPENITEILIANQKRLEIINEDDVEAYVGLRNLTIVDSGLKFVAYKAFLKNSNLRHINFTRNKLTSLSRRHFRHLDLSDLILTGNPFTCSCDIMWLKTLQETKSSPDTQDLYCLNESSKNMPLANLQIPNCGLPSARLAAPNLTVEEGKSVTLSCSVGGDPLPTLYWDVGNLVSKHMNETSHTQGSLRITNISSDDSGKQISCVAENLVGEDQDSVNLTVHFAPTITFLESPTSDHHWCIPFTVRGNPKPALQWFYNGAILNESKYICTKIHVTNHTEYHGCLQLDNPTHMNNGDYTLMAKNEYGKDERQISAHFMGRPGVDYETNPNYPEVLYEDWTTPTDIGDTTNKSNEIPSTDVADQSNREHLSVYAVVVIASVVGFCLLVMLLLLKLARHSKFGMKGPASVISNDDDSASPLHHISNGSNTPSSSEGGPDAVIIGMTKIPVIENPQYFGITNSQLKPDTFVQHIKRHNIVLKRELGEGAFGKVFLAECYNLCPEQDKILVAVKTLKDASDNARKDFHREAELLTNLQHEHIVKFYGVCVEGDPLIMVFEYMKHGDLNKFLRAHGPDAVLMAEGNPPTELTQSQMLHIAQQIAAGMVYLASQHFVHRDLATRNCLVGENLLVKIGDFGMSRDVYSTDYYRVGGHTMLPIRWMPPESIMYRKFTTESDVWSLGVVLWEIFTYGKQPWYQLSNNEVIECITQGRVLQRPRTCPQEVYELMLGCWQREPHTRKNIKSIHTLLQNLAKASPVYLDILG

Substance: Recombinant human BDNF (from UniProt P23560 129-247) (ligand)
- Fndc5 gene expression (qPCR) in primary cortical neurons stimulated overnight with BDNF (0.1-100 ng/ml); lowest concentration with a significant reduction: 1 ng/mL
